According to paper PMC11992055, “Identification of RING E3 pseudoligases in the TRIM protein family” (Nature Communications, 2025):

Target: the molecule itself
Assay: SEC-MALS; SEC-MALLS; Superdex 200 Increase 10/300; 120 µl sample at 1–6 mg/ml; 50 mM HEPES pH 7.5, 150 mM NaCl, 0.5 mM TCEP, 3 mM NaN3; 0.5 ml/min

Row | Protein | stoichiometry N
1 | TRIM22 RING domain (residues 1-87), wild type (domain or fragment, human, UniProt Q8IYM9 1-87, looked up, TRIM22, human, RING domain, residues 1-87; Monomer-dimer equilibrium by SEC-MALLS; The His6 tag is HRV 3C cleavable; also called TRIM22 RING WT; source: E. coli BL21, purified (Ni-NTA, size-exclusion chromatography)) MDFSVKVDIEKEVTCPICLELLTEPLSLDCGHSFCQACITAKIKESVIISRGESSCPVCQTRFQPGNLRPNRHLANIVERVKEVKMS | 2
2 | TRIM6 RING domain (residues 1-87), wild type (domain or fragment, human, UniProt Q9C030 1-87, looked up, TRIM6, human, RING domain, residues 1-87; Forms dimers in solution by SEC-MALLS; The His6 tag is HRV 3C cleavable; also called TRIM6 RING WT; source: E. coli BL21, purified (Ni-NTA, size-exclusion chromatography)) MTSPVLVDIREEVTCPICLELLTEPLSIDCGHSFCQACITPNGRESVIGQEGERSCPVCQTSYQPGNLRPNRHLANIVRRLREVVLG | 2
